molecular target: HLA-A2 molecules; test: T2A2 peptide binding assay to HLA-A2

In order of falling T2A2 Binding:
1. HPV-16 E7 agonist peptide E7-A2 (L15V) (peptide; other documents disagree on this pair)  1530
2. HPV-16 E6 agonist peptide E6-A1 (L19V) (peptide; other documents disagree on this pair)  1340
3. HPV-16 E6 agonist peptide E6-A3 (Q91L/L99V) (peptide; other documents disagree on this pair)  1280
4. HPV-16 E7 agonist peptide E7-A3 (T86V) (peptide; other documents disagree on this pair)  1260
5. HPV-16 E7 agonist peptide E7-A1 (T19V) (peptide; other documents disagree on this pair)  1170
6. HPV-16 E6 agonist peptide E6-A2 (C80V) (peptide; other documents disagree on this pair)  877
7. HPV-16 E6 native peptide E6-1 (E6 11-19)  853

molecular target: HLA-A2 molecules; test: T2A2 peptide binding assay to HLA-A2, negative control

With NEG (Negative control) (peptide) the T2A2 Binding was 812.

From patent US20190314479A1
